Test results as given in the supplement of paper PMC6757056.
± gives the standard deviation of the averaged measurements.

B1: library; a variant is named by its letters at N, in order (parent)
chain: GCUGUCACCGAGAAACUGUGAAGUAUAUCUUAAACCUGGGCACUUAAAAGAUAUAUGGAGUUAGUAGUGCAACCUGCUCGGUCUGAUGAGUCCNNNNNNGGACGAAACAGC

Experiments:
cyclic di-GMP [1] = variants of: B1; assay: normalized RNA/DNA level without ligand (relative to sTRSVctl = 100) (log10 (% of sTRSVctl)); HEK293T; ligand: cyclic di-GMP (c-di-GMP-II aptamer); higher = less ribozyme self-cleavage, higher mRNA level; settings: reporter: mCherry (pCS4076), ligand present: no
How it was run: (§1)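 For each 6-well well, 4 µg of library plasmid encoding mCherry-linked ribozyme switches, or eGFP-linked ones in some ligand experiments, was transfected into HEK293T. Any ligand was added 1 h before transfection, and RNA was extracted with EDTA 72 h after it, then reverse-transcribed, amplified, barcoded and sequenced. RNA level was obtained by dividing RNA reads by DNA reads, normalizing to a spiked-in non-cleaving sequence or to the top sequences, then scaling and log-transforming. The top set was 25 sequences, scaling was ×100 with log10, and ≥100 DNA reads were required.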

cyclic di-GMP [2] = variants of: B1; assay: normalized RNA/DNA level with ligand (relative to sTRSVctl = 100) (log10 (% of sTRSVctl)); HEK293T; ligand: cyclic di-GMP (c-di-GMP-II aptamer); ligand concentration (+) RNA-Seq: 1 mM; higher = less ribozyme self-cleavage, higher mRNA level; settings: reporter: mCherry (pCS4076), ligand present: yes
How it was run: as §1

Variant	normalized RNA/DNA level without ligand (log10) (cyclic di-GMP [1])	normalized RNA/DNA level with ligand (log10) (cyclic di-GMP [2])
AAAGGC	1.6 ± 0.044	1.77 ± 0.14
AGGGAC	1.55 ± 0.12	1.7 ± 0.16
UGAACA	1.75 ± 0.037	1.87 ± 0.074
GGGACC	1.84 ± 0.063	1.9 ± 0.15
CAAUGA	1.53 ± 0.056	1.74 ± 0.12
UUGAUA	1.49 ± 0.02	1.69 ± 0.17
AAGGCG	1.728 ± 0.012	1.83 ± 0.091
GCUACA	1.583 ± 0.0028	1.79 ± 0.072
UGCGGC	1.757 ± 0.0021	1.9 ± 0.12
GGUCGU	1.66 ± 0.056	1.83 ± 0.036
GGUCGC	1.74 ± 0.034	1.87 ± 0.15
GAGCAC	1.82 ± 0.053	1.87 ± 0.077
UCGACG	1.73 ± 0.0042	1.87 ± 0.099
AUCAAU	1.64 ± 0.026	1.77 ± 0.15
CUUCAG	1.732 ± 0.0075	1.81 ± 0.067
UGUCUA	1.71 ± 0.037	1.84 ± 0.15
UGAGGU	1.61 ± 0.052	1.79 ± 0.12
UGAGGA	1.54 ± 0.091	1.75 ± 0.088
CAUACA	1.38 ± 0.11	1.58 ± 0.1
AAAUUA	1.54 ± 0.04	1.75 ± 0.11
AAAUUC	1.6899 ± 0.00096	1.85 ± 0.11
GGGGUC	1.654 ± 0.0072	1.79 ± 0.12
GGCCAA	1.638 ± 0.01	1.74 ± 0.1

Variant	normalized RNA/DNA level without ligand (log10) (cyclic di-GMP [1])	normalized RNA/DNA level with ligand (log10) (cyclic di-GMP [2])
GGCCAG	1.74 ± 0.0068	1.85 ± 0.025
UUACGG	1.82 ± 0.058	1.9 ± 0.094
AUGUGC	1.6033 ± 0.00051	1.77 ± 0.14
UCAGGG	1.64 ± 0.023	1.81 ± 0.12
ACCUGG	1.68 ± 0.081	1.88 ± 0.049
GGUGAC	1.75 ± 0.0083	1.86 ± 0.14
UCCGGG	1.852 ± 0.016	1.93 ± 0.06
GCUUUU	1.67 ± 0.03	1.8 ± 0.11
UAGCGG	1.8203 ± 0.00054	1.95 ± 0.067
GCAGGC	1.58 ± 0.032	1.71 ± 0.025
CAUCGC	1.783 ± 0.015	1.87 ± 0.043
CAUCGG	1.78 ± 0.048	1.84 ± 0.12
UCUCGU	1.69 ± 0.037	1.85 ± 0.075
ACCCAU	1.61 ± 0.018	1.79 ± 0.12
CCAGAU	1.65 ± 0.025	1.81 ± 0.12
UUGGCG	1.85 ± 0.022	1.94 ± 0.11
GUUCAA	1.62 ± 0.059	1.81 ± 0.083
AGCGGA	1.52 ± 0.056	1.67 ± 0.086
UGGAGG	1.699 ± 0.0024	1.84 ± 0.14
GCGACU	1.57 ± 0.018	1.73 ± 0.089
AGUCGU	1.6615 ± 0.0012	1.79 ± 0.08
AGUCGG	1.8 ± 0.051	1.87 ± 0.082
AUCAGU	1.67 ± 0.065	1.82 ± 0.02

Variant	normalized RNA/DNA level without ligand (log10) (cyclic di-GMP [1])	normalized RNA/DNA level with ligand (log10) (cyclic di-GMP [2])
UGAUCG	1.77 ± 0.053	1.84 ± 0.15
UAAAUC	1.63 ± 0.033	1.79 ± 0.17
UUCGCU	1.77 ± 0.023	1.88 ± 0.087
CCCGGC	1.75 ± 0.031	1.88 ± 0.07
UCCUUU	1.75 ± 0.021	1.9 ± 0.073
GUCCAU	1.66 ± 0.054	1.83 ± 0.14
CGUUAC	1.57 ± 0.059	1.74 ± 0.064
ACUCGC	1.73 ± 0.027	1.88 ± 0.15
GGCAGA	1.637 ± 0.013	1.76 ± 0.1
GUGCUU	1.71 ± 0.025	1.84 ± 0.14
CAUUAC	1.6236 ± 0.00067	1.79 ± 0.13
GCGGGG	1.74 ± 0.035	1.83 ± 0.12
ACAGGA	1.3 ± 0.067	1.41 ± 0.16
AUAUUG	1.6 ± 0.052	1.78 ± 0.15
CUUCGU	1.8 ± 0.04	1.87 ± 0.094
UUCUUA	1.76 ± 0.095	1.87 ± 0.15
UGACAA	1.69 ± 0.018	1.8 ± 0.11
CUUCCU	1.64 ± 0.025	1.8 ± 0.084
UCCAUA	1.53 ± 0.033	1.74 ± 0.13
CAAGGA	1.46 ± 0.077	1.64 ± 0.064
GAUAUA	1.53 ± 0.032	1.7 ± 0.1
GCGGCU	1.75 ± 0.024	1.91 ± 0.14
CACUCU	1.6 ± 0.019	1.77 ± 0.12

Variant	normalized RNA/DNA level without ligand (log10) (cyclic di-GMP [1])	normalized RNA/DNA level with ligand (log10) (cyclic di-GMP [2])
ACAGCU	1.55 ± 0.062	1.73 ± 0.12
ACCGAC	1.61 ± 0.06	1.77 ± 0.11
AAGUGU	1.6 ± 0.034	1.76 ± 0.14
CGGCCU	1.74 ± 0.018	1.88 ± 0.11
UGGGGU	1.63 ± 0.056	1.77 ± 0.11
UUUUGA	1.74 ± 0.062	1.89 ± 0.2
GAGGGU	1.71 ± 0.024	1.75 ± 0.14
CGCGCG	1.83 ± 0.025	1.92 ± 0.038
UGGGCG	1.84 ± 0.035	1.92 ± 0.13
UUACUC	1.747 ± 0.0026	1.84 ± 0.093
CGUCAU	1.46 ± 0.042	1.64 ± 0.13
UGUUAG	1.74 ± 0.03	1.86 ± 0.14
GACUGA	1.57 ± 0.041	1.72 ± 0.12
GUCCUC	1.75 ± 0.026	1.9 ± 0.1
GUCCUU	1.7 ± 0.019	1.87 ± 0.1
AAGAUG	1.49 ± 0.055	1.71 ± 0.075
GCUCCA	1.7142 ± 0.0002	1.83 ± 0.1
CUAAUC	1.712 ± 0.014	1.81 ± 0.087
CGAUCU	1.52 ± 0.053	1.7 ± 0.073
GAGAGU	1.65 ± 0.0094	1.8 ± 0.1
AGUGAG	1.52 ± 0.11	1.67 ± 0.13
CCUAUG	1.48 ± 0.038	1.7 ± 0.083
UUGAGG	1.79 ± 0.028	1.87 ± 0.14

Variant	normalized RNA/DNA level without ligand (log10) (cyclic di-GMP [1])	normalized RNA/DNA level with ligand (log10) (cyclic di-GMP [2])
UAGUCG	1.8 ± 0.021	1.91 ± 0.14
ACUAUG	1.586 ± 0.01	1.75 ± 0.087
CUGCAC	1.742 ± 0.0034	1.88 ± 0.1
CGACUU	1.44 ± 0.089	1.63 ± 0.12
CUCCAU	1.58 ± 0.035	1.82 ± 0.057
CAGCAG	1.79 ± 0.028	1.85 ± 0.12
ACUGUU	1.452 ± 0.011	1.67 ± 0.13
UGCACG	1.801 ± 0.014	1.91 ± 0.14
GGGAUC	1.66 ± 0.064	1.77 ± 0.09
UAGACA	1.73 ± 0.058	1.85 ± 0.15
UUCACG	1.803 ± 0.018	1.9 ± 0.09
UGAAGC	1.679 ± 0.0046	1.83 ± 0.14
UGAAGA	1.62 ± 0.024	1.77 ± 0.13
CCGCUC	1.66 ± 0.029	1.85 ± 0.094
GCGAAC	1.28 ± 0.15	1.54 ± 0.052
CCCACG	1.75 ± 0.018	1.87 ± 0.044
CCGUUC	1.6 ± 0.047	1.78 ± 0.056
UCGUCA	1.644 ± 0.00093	1.82 ± 0.11
AGGCAA	1.45 ± 0.082	1.6 ± 0.11
AGGCAU	1.63 ± 0.018	1.83 ± 0.11
AGGCAC	1.707 ± 0.011	1.84 ± 0.12
CUUCUU	1.5858 ± 0.00043	1.75 ± 0.2
AGGAGU	1.52 ± 0.084	1.67 ± 0.058
